Results: patent publication US20180291110A1 (Hoffmann-La Roche, published 2018)
Substitutions are numbered along the chain they refer to.

B1: 2/99 VH5/VL12 (antibody, V domains shown)
VH: QSMEETGGGLIQPGGSLRLSCAASGFSLSSYAMSWVRQAPGKGLEWVGYIWSGGSTDYADSVKGRFTISRDNSKNTLYLQMNSLRAEDTAVYYCARRYGTSYPDYGDANGFDPWGPGTLVTVSS
VL: DIQMTQSPSSLSASVGDRVTITCRASQSISSYLAWYQQKPGKAPKLLIYRASTLASGVPSRFSGSRSGTDFTLTISSLQPEDFATYYCQQHYSSSNVDNTFGGGTKVEIK
B2: 2/99 VH12/VL12 (antibody, V domains shown)
VH: QVQLQESGPGLVKPSETLSLTCTVSGFSLSSYAMSWIRQPPGKGLEWIGYIWSGGSTDYNPSLKSRVTISVDTSKNQFSLKLSSVTAADTAVYYCARRYGTSYPDYGDANGFDPWGQGTLVTVSS
VL: B1 VL
B3: 2/99 VH8/VL12 (antibody, V domains shown)
VH: QQLVETGGGLIQPGGSLRLSCAASGFSLSSYAMSWVRQAPGKGLEWIGYIWSGGSTDYASWAKGRFTISKTSTTLYLQMNSLRAEDTAVYYCARRYGTSYPDYGDANGFDPWGQGTLVTVSS
VL: B1 VL
B4: 2/99 VH22/VL12 (antibody, V domains shown)
VH: QSMQESGPGLVKPSQTLSLTCTVSGFSLSSYAMSWVRQHPGKGLEWIGYIWSGGSTDYASWAKSRVTISVDTSKNQVSLKLSSVTAADTAVYYCARRYGTSYPDYGDANGFDPWGQGTLVTVSS
VL: B1 VL
B5: 2/99 VH7/VL12 (antibody, V domains shown)
VH: B1 VH with S2Q, M3L, E4V, V47I, D60S, S61W, V62A, P116Q
VL: B1 VL
B6: 2/99 VH20/VL12 (antibody, V domains shown)
VH: B4 VH with V36I, S60P, W61S, A62L
VL: B1 VL
B7: 2/99 VH11/VL12 (antibody, V domains shown)
VH: B1 VH with S2Q, M3L, E4L, T6S, I11V, P116Q
VL: B1 VL
B8: 2/99 VH9/VL14 (antibody, V domains shown)
VH: B1 VH with S2Q, M3L, E4L, T6S, I11V, S27T, L28F, R96K, P116Q
VL: DIVMTQSPDSLAVSLGERATINCKSSQSISSYLSWYQQKPGQRPKLLIYRASTLASGVPDRFSGSGSGTDFTLTISSLQAEDVAVYYCQQSYSSSNVDNTFGGGTKVEIK
B9: 2/99 VH11/VL14 (antibody, V domains shown)
VH: B1 VH with S2Q, M3L, E4L, T6S, I11V, P116Q
VL: B8 VL
B10: 2/99 VH15/VL12 (antibody, V domains shown)
VH: B4 VH with S2Q, M3L, Q15E, H39P, A59N, S60P, W61S, A62L
VL: B1 VL
B11: 2/99 VH13/VL12 (antibody, V domains shown)
VH: B2 VH with F78V
VL: B1 VL
B12: 2/99 VH19/VL12 (antibody, V domains shown)
VH: B4 VH with V36I, S60P, W61S, A62L, V77F
VL: B1 VL
B13: 2/99 VH6/VL12 (antibody, V domains shown)
VH: B1 VH with S2Q, M3L, E4V, V47I, P116Q
VL: B1 VL
B14: 2/99 VH5/VL14 (antibody, V domains shown)
VH: B1 VH
VL: B8 VL
B15: 2/99 VH1/VL14 (antibody, V domains shown)
VH: B1 VH with Q1V, S2Q, M3L, E4V, P116Q
VL: B8 VL
B16: 2/99 VH9/VL12 (antibody, V domains shown)
VH: B1 VH with S2Q, M3L, E4L, T6S, I11V, S27T, L28F, R96K, P116Q
VL: B1 VL
B17: 2/99 VH6/VL14 (antibody, V domains shown)
VH: B1 VH with S2Q, M3L, E4V, V47I, P116Q
VL: B8 VL
B18: 2/99 VH21/VL12 (antibody, V domains shown)
VH: B4 VH with V36I
VL: B1 VL
B19: 2/99 VH18/VL12 (antibody, V domains shown)
VH: B2 VH with E16Q, P40H, N60A
VL: B1 VL
B20: 2/99 VH7/VL14 (antibody, V domains shown)
VH: B1 VH with S2Q, M3L, E4V, V47I, D60S, S61W, V62A, P116Q
VL: B8 VL
B21: 2/99 VH16/VL12 (antibody, V domains shown)
VH: B4 VH with S2Q, M3L, Q15E, H39P, A59N, S60P, W61S, A62L, Q116P
VL: B1 VL
B22: 2/99 VH1/VL15 (antibody, V domains shown)
VH: B1 VH with Q1V, S2Q, M3L, E4V, P116Q
VL: B8 VL with S34I, R43P, S91A
B23: 2/99 VH17/VL12 (antibody, V domains shown)
VH: B4 VH with S2Q, M3L, Q15E, H39P, A59N, S60P, W61S, A62L, V70K, Q116P
VL: B1 VL
B24: 2/99 VH2/VL14 (antibody, V domains shown)
VH: EVQLVETGGGLIQPGGSLRLSCAASGFSLSSYAMSWVRQAPGKGLEWVGYIWSGGSTDYADSVKGRFTISRDNSKNTLYLQMNSLRAEDTAVYYCARRYGTSYPDYGDANGFDPWGQGTLVTVSS
VL: B8 VL
B25: 2/99 VH18/VL14 (antibody, V domains shown)
VH: B2 VH with E16Q, P40H, N60A
VL: B8 VL
B26: 2/99 VH22/VL14 (antibody, V domains shown)
VH: B4 VH
VL: B8 VL
B27: 2/99 VH8/VL14 (antibody, V domains shown)
VH: B3 VH
VL: B8 VL
B28: 2/99 VH21/VL14 (antibody, V domains shown)
VH: B4 VH with V36I
VL: B8 VL
B29: 2/99 VH23-DANG/VL14 (antibody, V domains shown)
VH: QSMQESGPGLVKPSQTLSLTCTVSGFSLSSYAMSWIRQHPGKGLEWIGYIWSGGSTDYASWAKSRVTISKTSTTVSLKLSSVTAADTAVYYCARRYGTSYPDYGDANGFDPWGQGTLVTVSS
VL: B8 VL
B30: 2/99 VH16/VL14 (antibody, V domains shown)
VH: B4 VH with S2Q, M3L, Q15E, H39P, A59N, S60P, W61S, A62L, Q116P
VL: B8 VL
B31: 2/99 VH19/VL14 (antibody, V domains shown)
VH: B4 VH with V36I, S60P, W61S, A62L, V77F
VL: B8 VL
B32: 2/99 VH17/VL14 (antibody, V domains shown)
VH: B4 VH with S2Q, M3L, Q15E, H39P, A59N, S60P, W61S, A62L, V70K, Q116P
VL: B8 VL
B33: 2/99 VH15/VL14 (antibody, V domains shown)
VH: B4 VH with S2Q, M3L, Q15E, H39P, A59N, S60P, W61S, A62L
VL: B8 VL
B34: 2/99 VH13/VL14 (antibody, V domains shown)
VH: B2 VH with F78V
VL: B8 VL
B35: 2/99 VH20/VL14 (antibody, V domains shown)
VH: B4 VH with V36I, S60P, W61S, A62L
VL: B8 VL
B36: 2/99 VH12/VL14 (antibody, V domains shown)
VH: B2 VH
VL: B8 VL

biological target: T1, human transferrin receptor (recombinant, for surface plasmon resonance) (human, UniProt P02786 89-760); experiment: SPR 25C
T1 construct: also called huTfR; human transferrin receptor-biotinylated
T1 sequence (P02786 89-760 limits assumed): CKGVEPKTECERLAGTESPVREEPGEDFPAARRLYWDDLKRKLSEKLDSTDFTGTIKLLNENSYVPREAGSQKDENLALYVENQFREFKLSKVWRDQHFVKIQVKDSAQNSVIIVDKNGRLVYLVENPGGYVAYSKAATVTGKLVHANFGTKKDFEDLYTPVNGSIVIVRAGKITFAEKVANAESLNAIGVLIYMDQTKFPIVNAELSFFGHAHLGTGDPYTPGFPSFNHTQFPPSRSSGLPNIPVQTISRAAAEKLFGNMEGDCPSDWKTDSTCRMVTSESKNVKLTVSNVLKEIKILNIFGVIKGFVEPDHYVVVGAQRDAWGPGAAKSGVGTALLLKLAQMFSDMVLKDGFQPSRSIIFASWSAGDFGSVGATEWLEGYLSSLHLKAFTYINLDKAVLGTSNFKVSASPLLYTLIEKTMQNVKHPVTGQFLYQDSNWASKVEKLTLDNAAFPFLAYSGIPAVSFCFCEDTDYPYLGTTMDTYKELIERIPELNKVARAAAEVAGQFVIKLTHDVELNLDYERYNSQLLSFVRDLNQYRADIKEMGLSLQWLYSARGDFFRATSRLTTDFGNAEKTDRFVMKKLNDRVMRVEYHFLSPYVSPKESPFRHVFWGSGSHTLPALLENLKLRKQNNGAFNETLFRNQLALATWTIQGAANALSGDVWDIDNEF

koff | Binder
0.001 s⁻¹ | B1
0.001 s⁻¹ | B2
0.00672 s⁻¹ | B3
0.00644 s⁻¹ | B4
0.00775 s⁻¹ | B5
0.001 s⁻¹ | B6
0.00787 s⁻¹ | B7
0.00332 s⁻¹ | B8
0.00351 s⁻¹ | B9
0.00764 s⁻¹ | B10
0.00785 s⁻¹ | B11
0.001 s⁻¹ | B12
0.00778 s⁻¹ | B13
0.00233 s⁻¹ | B14
0.00299 s⁻¹ | B15
0.001 s⁻¹ | B16
0.0022 s⁻¹ | B17
0.00754 s⁻¹ | B18

koff | Binder
0.001 s⁻¹ | B19
0.00153 s⁻¹ | B20
0.00754 s⁻¹ | B21
0.00669 s⁻¹ | B22
0.00284 s⁻¹ | B23
0.00244 s⁻¹ | B24
0.003 s⁻¹ | B25
0.00112 s⁻¹ | B26
0.00104 s⁻¹ | B27
0.00103 s⁻¹ | B28
0.000733 s⁻¹ | B29
0.00175 s⁻¹ | B30
0.00796 s⁻¹ | B31
0.00105 s⁻¹ | B32
0.00194 s⁻¹ | B33
0.00222 s⁻¹ | B34
0.00239 s⁻¹ | B35
0.00546 s⁻¹ | B36
